The source of these data is patent publication US20210047398A1, “ASPROSIN, A FAST-INDUCED GLUCOGENIC PROTEIN HORMONE” (Baylor College of Medicine, priority 2016, published 2021).

Test [1] is described as follows: Food intake, energy expenditure and body composition after asprosin gain-of-function. The format is in vivo, mice. The procedure:
Mouse food intake and energy expenditure—Food intake and energy expenditure were measured using the CLAMS System (Comprehensive Lab Animal Monitoring System, Columbus Instruments). Animals were acclimatized in the recording chambers for 48-72 hours, and measurements were taken subsequently for 24 hours during the light cycle and dark cycle. Mice received food and water ad libitum, or after an overnight fast where indicated. Oxygen consumption and food intake were recorded.
As previously described (Yan et al., 2016), male mice were anesthetized with inhaled isoflurane and stainless steel cannulas (Plastics One) were inserted into the lateral ventricles (0.34 mm caudal and 1 mm lateral from bregma; depth, 2.3 mm). […] These mice received 10 ng GFP ([…]) twice a day for 3 continuous days, and 10 ng asprosin (in […]) the last day. The BioDAQ food intake monitoring system (Research Diets, Inc) was used to monitor the food intake, and the food intake from the last GFP injection and asprosin were compared.
Mouse body composition—Body composition was analyzed using an ECHO-MRI system (Echo medical systems, Texas) or DEXA scans where indicated. Lean mass, fat mass, and overall body weight were calculated using the manufacturer-provided software.

The test system of a further test is POMC neurons. As to the kind of experiment: Whole-cell patch clamp recordings on POMC neurons. The format is cell-based, mice. The procedure: Electrophysiology—Whole-cell patch clamp recordings were performed on identified AgRP neurons or POMC neurons in the brain slices containing the arcuate nucleus of the hypothalamus (ARH). In particular, to identify AgRP neurons, the inventors crossed Rosa26-tdTOMATO allele onto the regular AgRP-Cre mice (Tong et al., 2008) to generate AgRP-Cre/Rosa26-tdTOMATO mice, which express TOMATO selectively in AgRP/NPY neurons. In some studies, the inventors crossed NPY-GFP mice (Pinto et al., 2004) with NPS mice to generate NPY-GFP mice with or without the NPS mutation, and GFP-labelled neurons in the arcuate nucleus were recorded. In order to record POMC neurons, the inventors crossed Rosa26-tdTOMATO allele onto the POMC-CreERT2 mice (Berglund et al., 2013) to generate POMC-CreERT2/Rosa26-tdTOMATO mice, which express TOMATO selectively in mature POMC neurons upon tamoxifen induction (0.2 mg/g, i.p. 6 weeks of age). In some studies, the inventors also crossed the AgRP-DTR allele onto POMC-GFP mice, and these mice received DT or saline injections (described above) to generate mice with or without AgRP neurons ablated.
Six to twelve-week old mice were deeply anesthetized with isoflurane and transcardially perfused with a modified ice-cold sucrose-based cutting solution (pH 7.3) containing 10 mM NaCl, 25 mM NaHCO3, 195 mM Sucrose, 5 mM Glucose, 2.5 mM KCl, 1.25 mM NaH2PO4, 2 mM Na-Pyruvate, 0.5 mM CaCl2, and 7 mM MgCl2, bubbled continuously with 95% O2 and 5% CO2 (Ren et al., 2012). The mice were then decapitated, and the entire brain was removed and immediately submerged in the cutting solution. Slices (250 μm) were cut with a Microm HM 650V vibratome (Thermo Scientific). Three brain slices containing the arcuate nucleus were obtained for each animal (Bregma −2.06 mm to −1.46 mm; Interaural 1.74 mm to 2.34 mm), and recordings were made at levels throughout this brain region. The slices were recovered for 1 h at 34° C. and then maintained at room temperature in artificial cerebrospinal fluid (aCSF, pH 7.3) containing 126 mM NaCl, 2.5 mM KCl, 2.4 mM CaCl2, 1.2 mM NaH2PO4, 1.2 mM MgCl2, 11.1 mM glucose, and 21.4 mM NaHCO3) saturated with 95% O2 and 5% CO2 before recording.
Slices were transferred to a recording chamber and allowed to equilibrate for at least 10 min before recording. The slices were superfused at 34° C. in oxygenated aCSF at a flow rate of 1.8-2 ml/min. GFP or TOMATO-labeled neurons in the ARH were visualized using epifluorescence and IR-DIC imaging on an upright microscope (Eclipse FN-1, Nikon) equipped with a moveable stage (MP-285, Sutter Instrument). Patch pipettes with resistances of 3-5 MΩ were filled with intracellular solution (pH 7.3) containing 128 mM K-Gluconate, 10 mM KCl, 10 mM HEPES, 0.1 mM EGTA, 2 mM MgCl2, 0.05 mM Na-GTP and 0.05 mM Mg-ATP. Recordings were made using a MultiClamp 700B amplifier (Axon Instrument), sampled using Digidata 1440A and analyzed offline with pClamp 10.3 software (Axon Instruments). Series resistance was monitored during the recording, and the values were generally <10 MΩ and were not compensated. The liquid junction potential was +12.5 mV, and was corrected after the experiment. Data were excluded if the series resistance increased dramatically during the experiment or without overshoot for action potential. Currents were amplified, filtered at 1 kHz, and digitized at 20 kHz. Current clamp was engaged to test neural firing frequency and resting membrane potential (RM) at the baseline and puff delivered recombinant Asprosin (500 ms at various concentrations indicated in the figures). For the asprosin antibody pre-incubation experiment, asprosin and anti-asprosin mAB or IgG were gently mixed at a 1:100 ratio, and then kept on ice for one hour before recording. After AgRP or POMC neuron response to asprosin alone was confirmed, the mixture of recombinant asprosin and anti-asprosin mAB or IgG was perfused to treat the AgRP or POMC neurons for 4 minutes. […]

The test system of test [2] is hepatic glucose production. As to the kind of experiment: Hyperinsulinemic-euglycemic clamp. The format is in vivo, mice. The procedure: Animals. […] MgR heterozygous mice were obtained from Jackson labs, and bred to obtain male MgR homozygous mice and WT littermates. 5-week-old male Ob/Ob mice were obtained from Jackson labs. […] For diet induced obesity studies, mice were placed on the adjusted calories diet providing 60% of calories from fat by Harlan-Teklad for 12 weeks. […] Mice were exposed to 30 μg recombinant His-tagged asprosin or recombinant Green Fluorescent Protein (GFP) daily for 10 days via subcutaneous injection. Mice were sacrificed and plasma and various organs were isolated 10 days after virus or peptide injection. For single dose injections, the same protocol was followed as that for daily injections, followed by collection of plasma at the indicated times via tail bleeds for insulin and glucose measurement. Insulin and glucose tolerance tests (ITT and GTT) were performed using standard procedures. […] For immunologic sequestration experiments, mice were injected intra-peritoneally with a 500 μg dose in saline of a custom-built (Thermo Scientific Inc.) anti-asprosin mouse monoclonal antibody directed against amino acids 106-134 (human profibrillin amino acids 2837-2865) or an equivalent dose of isotype matched IgG (Southern Biotech, Inc.). […] The Baylor College of Medicine Institutional Animal Care and Utilization Committee approved all experiments.

Where [3] appears, read: daily subcutaneous doses for 10 days.

B1: recombinant asprosin: 146 amino acid E. coli expressed fusion protein: 6 amino acid N-terminal His tag and 140 amino acid wild type asprosin (FBN1 2732-2871) (protein)
chain: HHHHHHSTNETDASNIEDQSETEANVSLASWDVEKTAIFAFNISHVSNKVRILELLPALTTLTNHNRYLIESGNEDGFFKINQKEGISYLHFTKKKPVAGTYSLQISSTPLYKKKELNQLEDKYDKDYLSGELGDNLKMKIQVLLH
Regarding B1, the “orexigenic effect in mice with AgRP neuron ablation” value in test [1] (IP injection, 24 hours cumulative food intake) was “completely eliminated”. In test [1] (setting [3]), the “adiposity (fat mass)” value is given as “increase in adiposity”, the energy expenditure result is “no change in energy expenditure” and the food intake entry is “expected hyperphagia”. The “food intake after intracerebroventricular (ICV) injection” value in test [1] (dark phase, 10 ng ICV) is reported as “orexigenic effect”. Also, in test [1] (mice injected with asprosin), the “food intake (FIG. 17)” value is recorded as “hyperphagia”. For the same molecule, in test [1] (single subcutaneous dose), the “hypophagia of NPS mice” value was “sufficient to completely rescue the hypophagia” and the “latent phase prior to orexigenic effect” value was “latent phase of several hours”. For the same molecule, the “food intake over the next 24-hr” value in test [1] (single subcutaneous dose, C57Bl/6 mice, vs GFP) is given as “greater food intake”. The “miniature inhibitory post-synaptic current (mIPSC) in POMC neurons” value in the test with POMC neurons is reported as “increased the frequency but not amplitude”. Besides, in the test on POMC neurons (AgRP neuron ablated mice), the “POMC neuron firing frequency with AgRP neuron ablation” value is “little effect” and the “asprosin-mediated hyperpolarization in POMC neurons with AgRP neuron ablation” value is “completely prevented”. For the same molecule, the “POMC neuron hyperpolarization with blockade of glutamatergic inputs” value in the test on POMC neurons (TTX + CNQX + AP5) was “did not affect”. Besides, the “ability to hyperpolarize POMC neurons, GABAergic input” value with POMC neurons (TTX + bicuculline) was “dependent on intact GABAergic input”. For the same molecule, the “proportion of POMC neurons inhibited” value with POMC neurons (reduced resting membrane potential and firing frequency) is on record as approximately 85%. Moreover, the hepatic glucose production result in test [2] (elevated plasma asprosin, 10 days after FBN1 adenovirus (FIG. 21C)) is reported as “increased hepatic glucose production”. The “ability of peripheral organs to take up glucose in response to insulin” value in test [2] (glucose disposal rate, FIG. 21D) is listed as “no impact”.
